From IntAct's records for PubMed 20389281

Key:
snai1_human SNAI1 [1] = target: snai1_human SNAI1 (UniProt O95863)
snai1_human SNAI1 [2] = target: snai1_human SNAI1 (UniProt O95863); remark: listed apart in the source

snai1_human SNAI1, sequence (O95863 whole entry): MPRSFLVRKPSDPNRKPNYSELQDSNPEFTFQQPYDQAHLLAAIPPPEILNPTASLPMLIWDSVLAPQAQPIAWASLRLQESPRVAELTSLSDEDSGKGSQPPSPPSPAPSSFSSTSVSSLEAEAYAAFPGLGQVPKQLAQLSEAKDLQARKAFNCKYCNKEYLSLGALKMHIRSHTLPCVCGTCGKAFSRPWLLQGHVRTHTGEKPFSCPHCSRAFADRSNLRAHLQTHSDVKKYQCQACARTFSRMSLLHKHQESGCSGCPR

Substance | effect of a mutation on the interaction (snai1_human SNAI1 [1]) | effect of a mutation on the interaction (snai1_human SNAI1 [2])
Lysine-specific histone demethylase 1A (Homo sapiens) (from UniProt O60341) E379A | disrupting interaction | 
Lysine-specific histone demethylase 1A (Homo sapiens) (from UniProt O60341) D375A | disrupting interaction | 
Lysine-specific histone demethylase 1A (Homo sapiens) (from UniProt O60341) D555A |  | disrupting interaction
Lysine-specific histone demethylase 1A (Homo sapiens) (from UniProt O60341) D556A |  | disrupting interaction
Lysine-specific histone demethylase 1A (Homo sapiens) (from UniProt O60341) D553A |  | disrupting interaction
